Experimental findings from patent publication US20160031968A1 (Bayer, published 2016) are described below.

Bounds are passed on as bounds.

Series [1] deals with T1, Var97, a variant of D519VE665V-FVIII with the additional amino acid substitutions I371P, V374F, V559L, R562W and Q565E.
T1 sequence: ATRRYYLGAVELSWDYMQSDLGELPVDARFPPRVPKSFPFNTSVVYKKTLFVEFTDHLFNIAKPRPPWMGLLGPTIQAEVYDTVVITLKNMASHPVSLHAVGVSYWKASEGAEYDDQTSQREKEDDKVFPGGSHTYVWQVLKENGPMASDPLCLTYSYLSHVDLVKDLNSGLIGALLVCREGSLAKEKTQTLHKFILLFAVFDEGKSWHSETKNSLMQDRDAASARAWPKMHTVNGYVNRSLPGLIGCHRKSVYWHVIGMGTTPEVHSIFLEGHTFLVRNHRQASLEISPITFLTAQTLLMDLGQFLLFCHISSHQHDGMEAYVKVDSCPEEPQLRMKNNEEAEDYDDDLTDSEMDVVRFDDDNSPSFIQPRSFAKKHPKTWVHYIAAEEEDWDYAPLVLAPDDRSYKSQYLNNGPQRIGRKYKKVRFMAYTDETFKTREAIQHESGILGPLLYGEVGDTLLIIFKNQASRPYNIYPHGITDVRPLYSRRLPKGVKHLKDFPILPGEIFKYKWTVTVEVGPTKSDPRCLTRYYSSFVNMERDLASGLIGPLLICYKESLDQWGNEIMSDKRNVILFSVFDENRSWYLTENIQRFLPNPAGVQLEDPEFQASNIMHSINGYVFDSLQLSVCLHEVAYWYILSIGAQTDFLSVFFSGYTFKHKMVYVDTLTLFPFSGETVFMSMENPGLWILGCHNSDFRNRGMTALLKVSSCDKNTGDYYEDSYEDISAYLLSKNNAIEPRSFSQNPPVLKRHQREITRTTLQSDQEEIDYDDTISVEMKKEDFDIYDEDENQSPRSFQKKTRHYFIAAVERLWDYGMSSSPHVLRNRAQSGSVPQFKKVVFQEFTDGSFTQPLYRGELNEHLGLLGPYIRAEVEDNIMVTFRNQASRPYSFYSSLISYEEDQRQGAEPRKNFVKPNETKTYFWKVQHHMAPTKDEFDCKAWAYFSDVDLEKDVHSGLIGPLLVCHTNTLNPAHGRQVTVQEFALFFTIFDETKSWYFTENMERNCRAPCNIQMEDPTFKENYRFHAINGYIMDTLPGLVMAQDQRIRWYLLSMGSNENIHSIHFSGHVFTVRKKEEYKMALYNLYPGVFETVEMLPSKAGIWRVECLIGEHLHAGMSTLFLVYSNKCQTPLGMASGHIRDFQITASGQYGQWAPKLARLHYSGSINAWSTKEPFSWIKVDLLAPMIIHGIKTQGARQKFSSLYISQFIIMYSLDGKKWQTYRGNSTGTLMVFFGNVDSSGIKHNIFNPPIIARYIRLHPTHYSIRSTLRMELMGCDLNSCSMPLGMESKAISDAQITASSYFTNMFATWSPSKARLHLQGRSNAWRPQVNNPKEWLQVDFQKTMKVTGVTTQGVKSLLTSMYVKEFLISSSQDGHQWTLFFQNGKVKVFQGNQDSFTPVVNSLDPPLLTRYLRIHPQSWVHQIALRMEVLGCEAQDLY

In a further series the test system is T2, Var97-R336I.
T2 sequence: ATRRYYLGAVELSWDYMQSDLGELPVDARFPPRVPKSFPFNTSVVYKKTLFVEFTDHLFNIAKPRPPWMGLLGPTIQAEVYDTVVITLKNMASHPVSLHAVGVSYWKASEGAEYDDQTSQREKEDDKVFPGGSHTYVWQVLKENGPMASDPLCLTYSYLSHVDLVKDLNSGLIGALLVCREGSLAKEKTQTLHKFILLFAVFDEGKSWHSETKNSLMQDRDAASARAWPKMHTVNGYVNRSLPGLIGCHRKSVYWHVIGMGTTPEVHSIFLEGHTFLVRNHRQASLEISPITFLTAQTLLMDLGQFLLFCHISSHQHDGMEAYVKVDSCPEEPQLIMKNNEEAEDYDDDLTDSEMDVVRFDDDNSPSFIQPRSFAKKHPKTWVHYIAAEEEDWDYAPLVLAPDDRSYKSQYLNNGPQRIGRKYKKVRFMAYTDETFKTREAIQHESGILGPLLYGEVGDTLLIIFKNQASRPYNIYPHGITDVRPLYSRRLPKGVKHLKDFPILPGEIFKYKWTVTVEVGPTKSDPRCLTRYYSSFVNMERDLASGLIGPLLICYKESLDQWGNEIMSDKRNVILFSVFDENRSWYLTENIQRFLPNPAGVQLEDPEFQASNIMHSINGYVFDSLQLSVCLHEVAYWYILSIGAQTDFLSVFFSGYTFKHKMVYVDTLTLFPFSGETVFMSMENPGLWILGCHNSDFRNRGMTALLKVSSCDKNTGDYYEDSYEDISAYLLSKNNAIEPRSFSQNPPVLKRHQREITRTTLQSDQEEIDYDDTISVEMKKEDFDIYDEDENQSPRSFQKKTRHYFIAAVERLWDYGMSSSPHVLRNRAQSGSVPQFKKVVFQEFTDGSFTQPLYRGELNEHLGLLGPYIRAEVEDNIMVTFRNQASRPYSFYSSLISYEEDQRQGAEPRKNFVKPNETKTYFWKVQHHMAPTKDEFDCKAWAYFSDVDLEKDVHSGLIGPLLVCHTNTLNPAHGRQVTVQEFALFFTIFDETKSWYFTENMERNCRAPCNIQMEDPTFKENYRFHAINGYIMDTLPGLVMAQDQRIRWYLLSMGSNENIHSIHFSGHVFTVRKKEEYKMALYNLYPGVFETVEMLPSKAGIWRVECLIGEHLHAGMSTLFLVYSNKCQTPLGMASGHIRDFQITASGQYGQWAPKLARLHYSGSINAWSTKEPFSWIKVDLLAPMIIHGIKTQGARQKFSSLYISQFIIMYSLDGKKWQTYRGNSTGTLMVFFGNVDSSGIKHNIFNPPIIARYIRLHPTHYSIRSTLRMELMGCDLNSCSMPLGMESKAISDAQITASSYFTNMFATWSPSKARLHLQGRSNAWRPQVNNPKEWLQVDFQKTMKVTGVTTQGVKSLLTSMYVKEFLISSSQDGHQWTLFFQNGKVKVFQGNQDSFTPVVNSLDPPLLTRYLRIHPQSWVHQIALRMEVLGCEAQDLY

In series [2] the target is T3, Factor IXa (activated Coagulation Factor IX) (human, UniProt P00740 47-191; P00740 227-461, limits assumed).
T3 construct: also called FIXa
T3 sequence (P00740 47-191 limits assumed, form in doubt, chain 1 of 2): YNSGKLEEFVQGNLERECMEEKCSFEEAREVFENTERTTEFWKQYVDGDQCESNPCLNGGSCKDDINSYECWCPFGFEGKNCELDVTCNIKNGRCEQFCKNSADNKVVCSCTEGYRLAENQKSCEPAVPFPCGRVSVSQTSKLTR
T3 sequence (P00740 227-461 limits assumed, form in doubt, chain 2 of 2): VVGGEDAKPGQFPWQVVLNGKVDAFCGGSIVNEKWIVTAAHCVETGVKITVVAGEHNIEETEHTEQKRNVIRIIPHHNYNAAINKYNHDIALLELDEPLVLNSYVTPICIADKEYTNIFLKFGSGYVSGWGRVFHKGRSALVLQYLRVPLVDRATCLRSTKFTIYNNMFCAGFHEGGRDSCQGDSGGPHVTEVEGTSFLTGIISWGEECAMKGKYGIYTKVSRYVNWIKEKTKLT
Nature of the series: FXase kinetic assay: thrombin-activated FVIII fixed at 10 pM, FIXa varied 0-10 nM, FXa generation read with S-2765 (functional affinity). The protocol: The function of the Var97 variant in its physiologic enzyme complex was examined using FXase kinetic assays. These FXase kinetic assays were performed in 10 mM HEPES pH 7.4, 150 mM NaCl, 5 mM CaCl2, 0.01% Tween 20, 0.01% BSA and 10 μM PL (40:40:20, v/v/v PS:PC:PE). In these FXase kinetic assays, purified FVIIIa proteins were generated by incubation with 20 nM thrombin. The FVIII level was held fixed at 10 pM and reacted with varying concentrations of FIXa (0-10 nM), or the FIXa level was held fixed at (100 pM) and the level of thrombin activated FVIIIa was varied (0-10 nM). FX (150 nM) was added to either types of reactions, and after 1 min., the FXase reactions were stopped by addition to EDTA. The amount of FXa generated in these reactions were measured using the S-2765 chromogenic substrate. FXa generation was then extrapolated from a standard curve relating FXa level to rates of chromogenic substrate cleavage. The data was fit to a standard Michaelis-Menten equation to derive kinetic constants.

Regarding “Factor IXa (activated Coagulation Factor IX)”, the “proteolytic cleavage of FVIII by excess FIXa in a FXase reaction (SDS-PAGE, Coomassie Blue)” value in series [1] was “the Var97 Factor VIII variant shows enhanced proteolytic cleavage by FIXa relative to one or both of BDD and D519VE665V variant FVIII”. Besides, in the series with Var97-R336I, the “proteolytic cleavage in the FIXa digestion assay (SDS-PAGE)” value was “proteolytic cleavage of Var97-R336I was markedly reduced as compared to Var97”.

B1: Var97, a variant of D519VE665V-FVIII with the additional amino acid substitutions I371P, V374F, V559L, R562W and Q565E (other)
chain: ATRRYYLGAVELSWDYMQSDLGELPVDARFPPRVPKSFPFNTSVVYKKTLFVEFTDHLFNIAKPRPPWMGLLGPTIQAEVYDTVVITLKNMASHPVSLHAVGVSYWKASEGAEYDDQTSQREKEDDKVFPGGSHTYVWQVLKENGPMASDPLCLTYSYLSHVDLVKDLNSGLIGALLVCREGSLAKEKTQTLHKFILLFAVFDEGKSWHSETKNSLMQDRDAASARAWPKMHTVNGYVNRSLPGLIGCHRKSVYWHVIGMGTTPEVHSIFLEGHTFLVRNHRQASLEISPITFLTAQTLLMDLGQFLLFCHISSHQHDGMEAYVKVDSCPEEPQLRMKNNEEAEDYDDDLTDSEMDVVRFDDDNSPSFIQPRSFAKKHPKTWVHYIAAEEEDWDYAPLVLAPDDRSYKSQYLNNGPQRIGRKYKKVRFMAYTDETFKTREAIQHESGILGPLLYGEVGDTLLIIFKNQASRPYNIYPHGITDVRPLYSRRLPKGVKHLKDFPILPGEIFKYKWTVTVEVGPTKSDPRCLTRYYSSFVNMERDLASGLIGPLLICYKESLDQWGNEIMSDKRNVILFSVFDENRSWYLTENIQRFLPNPAGVQLEDPEFQASNIMHSINGYVFDSLQLSVCLHEVAYWYILSIGAQTDFLSVFFSGYTFKHKMVYVDTLTLFPFSGETVFMSMENPGLWILGCHNSDFRNRGMTALLKVSSCDKNTGDYYEDSYEDISAYLLSKNNAIEPRSFSQNPPVLKRHQREITRTTLQSDQEEIDYDDTISVEMKKEDFDIYDEDENQSPRSFQKKTRHYFIAAVERLWDYGMSSSPHVLRNRAQSGSVPQFKKVVFQEFTDGSFTQPLYRGELNEHLGLLGPYIRAEVEDNIMVTFRNQASRPYSFYSSLISYEEDQRQGAEPRKNFVKPNETKTYFWKVQHHMAPTKDEFDCKAWAYFSDVDLEKDVHSGLIGPLLVCHTNTLNPAHGRQVTVQEFALFFTIFDETKSWYFTENMERNCRAPCNIQMEDPTFKENYRFHAINGYIMDTLPGLVMAQDQRIRWYLLSMGSNENIHSIHFSGHVFTVRKKEEYKMALYNLYPGVFETVEMLPSKAGIWRVECLIGEHLHAGMSTLFLVYSNKCQTPLGMASGHIRDFQITASGQYGQWAPKLARLHYSGSINAWSTKEPFSWIKVDLLAPMIIHGIKTQGARQKFSSLYISQFIIMYSLDGKKWQTYRGNSTGTLMVFFGNVDSSGIKHNIFNPPIIARYIRLHPTHYSIRSTLRMELMGCDLNSCSMPLGMESKAISDAQITASSYFTNMFATWSPSKARLHLQGRSNAWRPQVNNPKEWLQVDFQKTMKVTGVTTQGVKSLLTSMYVKEFLISSSQDGHQWTLFFQNGKVKVFQGNQDSFTPVVNSLDPPLLTRYLRIHPQSWVHQIALRMEVLGCEAQDLY
notes: Purified from HKB11 cells; also called Var97 variant; Var97 Factor VIII variant
Regarding B1, the “fold binding affinity for FIXa over FVIII-BDD” value in series [2] was not below 4 fold.
